# From patent US20140213772A1 (AbbVie / Abbott, published 2014)
# Assays:
# IL-1B [1] = biological target: T1, IL-1B (UniProt P01584 117-269); assay: SPR (Biacore)
# IL-1B [2] = biological target: T1, IL-1B; assay: cell-based or functional assay
# IL-17 [3] = biological target: T2, IL-17 (UniProt Q16552 24-155); assay: cell-based or functional assay
# IL-17 [4] = biological target: T2, IL-17; assay: ELISA
# IL-17 [5] = biological target: T2, IL-17; assay: cell-based or functional assay; remark: listed apart in the source
# TNF [6] = biological target: T3, TNF (UniProt P01375 77-233); assay: ELISA
# TNF [7] = biological target: T3, TNF; assay: cell-based or functional assay
# IL-17 [8] = biological target: T2, IL-17; assay: SPR (Biacore)
# T2 sequence (Q16552 24-155 limits assumed): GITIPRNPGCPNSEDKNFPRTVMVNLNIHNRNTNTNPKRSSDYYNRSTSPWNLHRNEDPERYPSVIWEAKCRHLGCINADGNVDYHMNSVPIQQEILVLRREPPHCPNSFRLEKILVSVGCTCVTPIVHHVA
# T3 sequence (P01375 77-233 limits assumed): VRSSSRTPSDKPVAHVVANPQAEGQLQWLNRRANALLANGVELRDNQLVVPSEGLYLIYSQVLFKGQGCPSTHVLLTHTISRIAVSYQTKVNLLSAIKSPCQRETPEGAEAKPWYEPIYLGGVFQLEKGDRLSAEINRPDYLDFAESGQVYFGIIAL
binder,measurement,setting,value
CODH4 (bispecific antibody) chain 1: EVQLVQSGAEVKKPGESVKISCKASGGSFRSYGISWVRQAPGQGLEWMGGITHFFGITDYAQKFQGRVTITADESTTTAYMELSGLTSDDTAVYYCAREPNDFWGGYYDTHDFDSWGQGTTVTVSSGEVQLVESGGGVVQPGRSLRLSCSASGFIFSRYDMSWVRQAPGKGLEWVAYISHGGAGTYYPDSVKGRFTISRDNSKNTLFLQMDSLRPEDTGVYFCARGGVTKGYFDVWGQGTPVTVSSGG chain 2: DIQMTQSPSSLSASVGDRVTITCRASGNIHNYLTWYQQTPGKAPKLLIYNAKTLADGVPSRFSGSGSGTDYTFTISSLQPEDIATYYCQHFWSIPYTFGQGTKLQITGGGGGGGEIVLTQSPDFQSVTPKEKVTITCRASQNIGSELHWYQQKPDQSPKLLIKYASHSISGVPSRFSGSGSGTDFTLTINGLEAEDAATYYCHQSDTLPHTFGQGTKVDIKGGGGGR,Kd,IL-1B [1],110 pM
same,IL-1B neutralization IC50 (pM),IL-1B [2],113 pM
same,IL-17 neutralization IC50 (pM),IL-17 [3],4 pM
CODH12 (bispecific antibody) chain 1: EVQLVESGGGVVQPGRSLRLSCSASGFIFSRYDMSWVRQAPGKGLEWVAYISHGGAGTYYPDSVKGRFTISRDNSKNTLFLQMDSLRPEDTGVYFCARGGVTKGYFDVWGQGTPVTVSSGGGGSGGGEIVLTQSPDFQSVTPKEKVTITCRASQNIGSELHWYQQKPDQSPKLLIKYASHSISGVPSRFSGSGSGTDFTLTINGLEAEDAATYYCHQSDTLPHTFGQGTKVDIKGGSGG chain 2: EVQLVQSGAEVKKPGESVKISCKASGGSFRSYGISWVRQAPGQGLEWMGGITHFFGITDYAQKFQGRVTITADESTTTAYMELSGLTSDDTAVYYCAREPNDFWGGYYDTHDFDSWGQGTTVTVSSGGGGSGGGDIQMTQSPSSLSASVGDRVTITCRASGNIHNYLTWYQQTPGKAPKLLIYNAKTLADGVPSRFSGSGSGTDYTFTISSLQPEDIATYYCQHFWSIPYTFGQGTKLQITGGGR,Kd,IL-1B [1],800000 pM
same,IL-1B neutralization IC50 (pM),IL-1B [2],2040 pM
same,IL-17 neutralization IC50 (pM),IL-17 [3],220 pM
CODH15 (bispecific antibody) chain 1: EIVLTQSPDFQSVTPKEKVTITCRASQNIGSELHWYQQKPDQSPKLLIKYASHSISGVPSRFSGSGSGTDFTLTINGLEAEDAATYYCHQSDTLPHTFGQGTKVDIKGGGGGGGDIQMTQSPSSLSASVGDRVTITCRASGNIHNYLTWYQQTPGKAPKLLIYNAKTLADGVPSRFSGSGSGTDYTFTISSLQPEDIATYYCQHFWSIPYTFGQGTKLQITGGGGG chain 2: EVQLVESGGGVVQPGRSLRLSCSASGFIFSRYDMSWVRQAPGKGLEWVAYISHGGAGTYYPDSVKGRFTISRDNSKNTLFLQMDSLRPEDTGVYFCARGGVTKGYFDVWGQGTPVTVSSGEVQLVQSGAEVKKPGESVKISCKASGGSFRSYGISWVRQAPGQGLEWMGGITHFFGITDYAQKFQGRVTITADESTTTAYMELSGLTSDDTAVYYCAREPNDFWGGYYDTHDFDSWGQGTTVTVSSGGR,Kd,IL-1B [1],390000 pM
same,IL-1B neutralization IC50 (pM),IL-1B [2],1660 pM
same,IL-17 neutralization IC50 (pM),IL-17 [3],7.4 pM
"AB274 (antibody, V domains shown) VH: EVQLVQSGAEVKKPGSSVKVSCKASGGSFGGYGIGWVRQAPGQGLEWMGGITPFFGFADYAQKFQGRVTITADESTTTAYMELSGLTSDDTAVYYCARDPNEFWNGYYSTHDFDSWGQGTTVTVSS VL: EIVLTQSPDFQSVTPKEKVTITCRASQDIGSELHWYQQKPDQPPKLLIKYASHSTSGVPSRFSGSGSGTDFTLTINGLEAEDAGTYYCHQTDSLPYTFGPGTKVDIKR",EC50,IL-17 [4],203 pM
same,"Neutralization IC50 (pM), IL-17",IL-17 [5],10 pM
"AB441 (antibody, V domains shown) VH: EVQLVQSGAEVKKPGASVKVSCKASGYTFANYGIIWVRQAPGQGLEWMGWINTYTGKPTYAQKFQGRVTMTTDTSTSTAYMELSSLRSEDTAVYYCARKLFTTMDVTDNAMDYWGQGTTVTVSS VL: DIQMTQSPSSLSASVGDRVTITCRASQDISQYLNWYQQKPGKAPKLLIYYTSRLQSGVPSRFSGSGSGTDFTLTISSLQPEDFATYFCQQGNTWPPTFGQGTKLEIKR",EC50,TNF [6],398 pM
same,"Neutralization IC50 (pM), TNF",TNF [7],6 pM
"AB270 (antibody, V domains shown, Benchmark anti-IL-1B mAb; also called 1B12.1; 1B12-1) VH: EVQLQESGPGLVKPSETLSLTCTVSGFSLSDYGVSWIRQPPGKGLEWLGLIWGGGDTYYNSPLKSRLTISKDNSKSQVSLKLSSVTAADTAVYYCAKQRTLWGYDLYGMDYWGQGTLVTVSS VL: DTQVTQSPSSLSASVGDRVTITCITSTDIDVDMNWYQQKPGKPPKLLISQGNTLRPGVPSRFSSSGSGTDFTFTISSLQPEDFATYYCLQSDNLPLTFGQGTKLEIK",Kd,IL-1B [1],89 pM
same,IL-1B neutralization IC50 (pM),IL-1B [2],245 pM
"AB461 (antibody, V domains shown, Benchmark anti-IL-17 mAb; also called B6-5G) VH: EVQLVQSGAEVKKPGESVKISCKASGGSFRSYGISWVRQAPGQGLEWMGGITHFFGITDYAQKFQGRVTITADESTTTAYMELSGLTSDDTAVYYCAREPNDFWGGYYDTHDFDSWGQGTTVTVSS VL: EIVLTQSPDFQSVTPKEKVTITCRASQNIGSELHWYQQKPDQSPKLLIKYASHSISGVPSRFSGSGSGTDFTLTINGLEAEDAATYYCHQSDTLPHTFGQGTKVDIK",Kd,IL-17 [8],0.9 pM
same,IL-17 neutralization IC50 (pM),IL-17 [3],2 pM
CODH1 (bispecific antibody) chain 1: EVQLQESGPGLVKPSETLSLTCTVSGFSLSDYGVSWIRQPPGKGLEWLGLIWGGGDTYYNSPLKSRLTISKDNSKSQVSLKLSSVTAADTAVYYCAKQRTLWGYDLYGMDYWGQGTLVTVSSGEVQLVQSGAEVKKPGESVKISCKASGGSFRSYGISWVRQAPGQGLEWMGGITHFFGITDYAQKFQGRVTITADESTTTAYMELSGLTSDDTAVYYCAREPNDFWGGYYDTHDFDSWGQGTTVTVSSGG chain 2: EIVLTQSPDFQSVTPKEKVTITCRASQNIGSELHWYQQKPDQSPKLLIKYASHSISGVPSRFSGSGSGTDFTLTINGLEAEDAATYYCHQSDTLPHTFGQGTKVDIKGGGGGGGDTQVTQSPSSLSASVGDRVTITCITSTDIDVDMNWYQQKPGKPPKLLISQGNTLRPGVPSRFSSSGSGTDFTFTISSLQPEDFATYYCLQSDNLPLTFGQGTKLEIKGGGGGR,Kd,IL-1B [1],190 pM
same,Kd,IL-17 [8],< 0.1 pM
same,IL-1B neutralization IC50 (pM),IL-1B [2],1300 pM
same,IL-17 neutralization IC50 (pM),IL-17 [3],30 pM
CODH2 (bispecific antibody) chain 1: EVQLVQSGAEVKKPGESVKISCKASGGSFRSYGISWVRQAPGQGLEWMGGITHFFGITDYAQKFQGRVTITADESTTTAYMELSGLTSDDTAVYYCAREPNDFWGGYYDTHDFDSWGQGTTVTVSSGEVQLQESGPGLVKPSETLSLTCTVSGFSLSDYGVSWIRQPPGKGLEWLGLIWGGGDTYYNSPLKSRLTISKDNSKSQVSLKLSSVTAADTAVYYCAKQRTLWGYDLYGMDYWGQGTLVTVSSGG chain 2: DTQVTQSPSSLSASVGDRVTITCITSTDIDVDMNWYQQKPGKPPKLLISQGNTLRPGVPSRFSSSGSGTDFTFTISSLQPEDFATYYCLQSDNLPLTFGQGTKLEIKGGGGGGGEIVLTQSPDFQSVTPKEKVTITCRASQNIGSELHWYQQKPDQSPKLLIKYASHSISGVPSRFSGSGSGTDFTLTINGLEAEDAATYYCHQSDTLPHTFGQGTKVDIKGGGGGR,Kd,IL-1B [1],170 pM
same,Kd,IL-17 [8],0.4 pM
same,IL-1B neutralization IC50 (pM),IL-1B [2],1600 pM
same,IL-17 neutralization IC50 (pM),IL-17 [3],29 pM
CODH3 (bispecific antibody) chain 1: EVQLVESGGGVVQPGRSLRLSCSASGFIFSRYDMSWVRQAPGKGLEWVAYISHGGAGTYYPDSVKGRFTISRDNSKNTLFLQMDSLRPEDTGVYFCARGGVTKGYFDVWGQGTPVTVSSGEVQLVQSGAEVKKPGESVKISCKASGGSFRSYGISWVRQAPGQGLEWMGGITHFFGITDYAQKFQGRVTITADESTTTAYMELSGLTSDDTAVYYCAREPNDFWGGYYDTHDFDSWGQGTTVTVSSGG chain 2: EIVLTQSPDFQSVTPKEKVTITCRASQNIGSELHWYQQKPDQSPKLLIKYASHSISGVPSRFSGSGSGTDFTLTINGLEAEDAATYYCHQSDTLPHTFGQGTKVDIKGGGGGGGDIQMTQSPSSLSASVGDRVTITCRASGNIHNYLTWYQQTPGKAPKLLIYNAKTLADGVPSRFSGSGSGTDYTFTISSLQPEDIATYYCQHFWSIPYTFGQGTKLQITGGGGGR,Kd,IL-1B [1],130 pM
same,Kd,IL-17 [8],< 0.2 pM
same,IL-1B neutralization IC50 (pM),IL-1B [2],1160 pM
same,IL-17 neutralization IC50 (pM),IL-17 [3],12 pM
